For the test, the target named is RNF168 (UniProt Q8IYW5). Put plainly: anti-HA co-IP, FLAG blot. The note with it: reference: wild-type HA-LSD1.

Turning to LSD1 (from UniProt O60341) S131A, where the note is “sites S131”, the “binding against the reference” value is listed as “weaker”.

Consider LSD1 (from UniProt O60341) S137A, for which, where the note is “sites S137”, the “binding against the reference” value is recorded as “weaker”.
